Data as given in patent US20210269532A1.

What was measured:
[1] = biological target: His-tagged human AXL extracellular domain (recombinant) (human) (UniProt P30530); assay: SPR classical sandwich assay (IBIS MX96): 100 nM analyte over AXL-His ECD held by surface-captured 10G5 analogue; grey cell = blocked (self)
[2] = biological target: His-tagged human AXL extracellular domain (recombinant) (human) (UniProt P30530); assay: SPR classical sandwich assay (IBIS MX96): 100 nM analyte over AXL-His ECD held by surface-captured YW327.6S2 IgG1-LALA analogue; white cell = sandwiching
[3] = biological target: His-tagged human AXL extracellular domain (recombinant) (human) (UniProt P30530); assay: BLI (Octet QK384), His-tagged protein captured on Anti-Penta-HIS sensors, antibody at saturating conditions; row HuAXL_ECD, the reference of the normalization
[4] = biological target: His-tagged human AXL extracellular domain (recombinant) (human) (UniProt P30530); assay: SPR classical sandwich assay (IBIS MX96): 100 nM analyte over AXL-His ECD held by surface-captured 22995; white cell = sandwiching
[5] = biological target: His-tagged human AXL extracellular domain (recombinant) (human) (UniProt P30530); assay: SPR classical sandwich assay (IBIS MX96): 100 nM analyte over AXL-His ECD held by the surface-captured Control antibody (f2); white cell = sandwiching
[6] = biological target: chimeric mouse AXL ECD with human Ig1 domain, His-tagged (human; mouse) (UniProt Q00993); assay: BLI (Octet QK384), His-tagged protein captured on Anti-Penta-HIS sensors, antibody at saturating conditions; white cell
Sequence of chimeric mouse AXL ECD with human Ig1 domain, His-tagged (human; mouse) (Q00993 other isoform, or with tags, fused parts or gaps mutant limits assumed): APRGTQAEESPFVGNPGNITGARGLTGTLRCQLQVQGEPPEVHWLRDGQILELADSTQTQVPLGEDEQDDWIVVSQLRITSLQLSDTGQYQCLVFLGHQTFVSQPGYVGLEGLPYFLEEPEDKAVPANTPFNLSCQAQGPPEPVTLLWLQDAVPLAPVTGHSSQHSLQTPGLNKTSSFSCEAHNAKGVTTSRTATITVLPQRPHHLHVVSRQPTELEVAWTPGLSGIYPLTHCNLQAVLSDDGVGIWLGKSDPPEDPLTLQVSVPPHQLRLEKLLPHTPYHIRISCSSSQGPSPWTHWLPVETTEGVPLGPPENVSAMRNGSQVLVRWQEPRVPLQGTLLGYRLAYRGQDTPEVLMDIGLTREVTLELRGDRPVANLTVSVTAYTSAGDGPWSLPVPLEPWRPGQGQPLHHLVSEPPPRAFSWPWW

[7] = biological target: His-tagged human AXL extracellular domain (recombinant) (human) (UniProt P30530); assay: SPR classical sandwich assay (IBIS MX96): 100 nM analyte over AXL-His ECD held by surface-captured 23203-1; white cell = sandwiching
[8] = biological target: His-tagged human AXL extracellular domain (recombinant) (human) (UniProt P30530); assay: SPR classical sandwich assay (IBIS MX96): 100 nM analyte over AXL-His ECD held by surface-captured 22883; grey cell = blocked

Sequence of His-tagged human AXL extracellular domain (recombinant) (human) (P30530 26-451): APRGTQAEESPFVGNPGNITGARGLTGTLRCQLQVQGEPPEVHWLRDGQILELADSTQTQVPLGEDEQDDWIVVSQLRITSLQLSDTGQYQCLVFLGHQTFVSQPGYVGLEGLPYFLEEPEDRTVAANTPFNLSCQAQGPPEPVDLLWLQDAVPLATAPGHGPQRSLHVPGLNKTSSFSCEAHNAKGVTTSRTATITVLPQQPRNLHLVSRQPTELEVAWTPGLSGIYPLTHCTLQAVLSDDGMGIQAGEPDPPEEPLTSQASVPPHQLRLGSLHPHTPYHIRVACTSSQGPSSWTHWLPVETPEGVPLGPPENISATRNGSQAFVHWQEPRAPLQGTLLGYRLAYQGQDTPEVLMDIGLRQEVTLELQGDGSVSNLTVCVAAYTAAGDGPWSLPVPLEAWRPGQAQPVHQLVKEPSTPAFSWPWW

B1: 10G5 analogue (BerGenBio) (antibody, from another filing, V domains shown)
VH: QVQLQQSGAELVRPGASVKLSCKASGYSFTDFYINWVRQRPGQGLEWIARIFPGGDNTYYNEKFKGKATLTAEESSSTAYIQLSSLTSEDSAVYFCARRGLYYAMDYWGQGISVTVSS
VL: DVLMTQTPLSLPVSLGDQASISCRSSQSLVHSNGIPYLHWYLQKPGQSPKLLIYRVSNRFSGVPDRFSGSGSGTDFTLKISRVEAEDLGVYFCSQGTHVPPTFGGGTKLEIK
- normalized SPR sandwich response [1]: -0.2
- normalized SPR sandwich response [2]: 1.6
- BLI response (nm) normalized to full-length human AXL-ECD [3]: 1
- normalized SPR sandwich response [4]: 1.3
- normalized SPR sandwich response [5]: 1.2
- BLI response (nm) normalized to full-length human AXL-ECD [6]: 0.9
- normalized SPR sandwich response [7]: 1.2
- normalized SPR sandwich response [8]: -0.1
